Measurements published in US20230235013A1 (MABSOLVE, published 2023).

Assays:
[1] = biological target: T1, Histidine-tagged recombinant human FcγRI (CD64) (human, UniProt P12314 16-288, limits assumed); assay: SPR, His-FcγRI captured; Expt 1;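 further: SPR at 25 °C on anti-His antibody chip capturing FcγRI, Fc-variant antibodies injected at 100 µg/mL for 1 min, signal near end of injection minus buffer blank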
T1 construct: bought
Method: (§1) Binding analysis was carried out by surface plasmon resonance at 25° C. using a Biacore® T200 instrument with Biacore® T200 control software. The sample compartment was held at 5° C. The running buffer (HBS-EP+) consisted of 0.01 M HEPES pH 7.4, containing 0.15 M NaCl, 3 mM EDTA, and 0.05% v/v Surfactant P20. Methods were run using the manufacturer's standard method wizards as described in the Biacore® T200 Instrument Handbook.
(§2) The cell was activated by treatment with EDC/NHS for 7 min. The antibody was diluted to 10 μg/mL in 10 mM sodium acetate pH 5.0 and injected for 7 min at 5 μL/min. The flow cell was deactivated by injection of 1M ethanolamine for 7 min. This process was repeated in the absence of anti-his antibody on a separate flow cell to generate a reference surface. […] Samples of purified antibodies comprising variant Fc regions (1 mg/mL in PBS) were diluted with running buffer to 100 μg/mL and were injected for 1 min at 30 μL/min and allowed to disassociate for 2 min. Between each cycle, the chip was regenerated by injection of 10 mM glycine pH 3.0 for 0.5 min at a flow rate of 30 μL/min and recharged with a fresh injection of FcγRI. At the beginning of each experiment, three blank cycles were run, with buffer alone being injected instead of test sample. The average SPR signal (relative to the reference cell) was measured in a window approximately 8 to 13 seconds before the injection of test sample (baseline) and approximately 3 to 8 seconds before the end of injection (response). The response of the third of the blank (buffer) samples was subtracted from the response of each test sample in order to allow for any dissociation of the bound FcγRI giving a corrected response for each test sample. The whole experiment was repeated three times with the test samples being analysed in different orders each time.

[2] = biological target: T1, Histidine-tagged recombinant human …; assay: SPR, His-FcγRI captured; Expt 3;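 further: biacore T200 SPR at 25 °C, Fc-variant antibodies at 100 µg/mL flowed 1 min over anti-His-captured FcγRI, signal taken just before injection end minus a buffer blank cycle; antibody analyte injected at 100 µg/mL for 1 min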
[3] = biological target: T1, Histidine-tagged recombinant human …; assay: SPR, His-FcγRI captured; Expt 2;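 further: biacore T200 SPR at 25 °C, Fc-variant antibodies at 100 µg/mL flowed 1 min over anti-His-captured receptor, signal read near injection end minus third buffer blank; antibody analyte injected at 100 µg/mL for 1 min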
Method: as §1, §2

Binder | Corrected response (RU) [1] [RU] | Corrected response (RU) [2] [RU] | Corrected response (RU) [3] [RU]
anti-CD20 human IgG1 L234H/L235S/G236R (antibody, also called 2-21; 1-74) heavy: QVQLQQPGAELVKPGASVKMSCKASGYTFTSYNMHWVKQTPGRGLEWIGAIYPGNGDTSYNQKFKGKATLTADKSSSTAYMQLSSLTSEDSAVYYCARSTYYGGDWYFNVWGAGTTVTVSSASTKGPSVFPLAPSSKSTSGGTAALGCLVKDYFPEPVTVSWNSGALTSGVHTFPAVLQSSGLYSLSSVVTVPSSSLGTQTYICNVNHKPSNTKVDKKVEPKSCDKTHTCPPCPAPEHSRGPSVFLFPPKPKDTLMISRTPEVTCVVVDVSHEDPEVKFNWYVDGVEVHNAKTKPREEQYNSTYRVVSVLTVLHQDWLNGKEYKCKVSNKALPAPIEKTISKAKGQPREPQVYTLPPSRDELTKNQVSLTCLVKGFYPSDIAVEWESNGQPENNYKTTPPVLDSDGSFFLYSKLTVDKSRWQQGNVFSCSVMHEALHNHYTQKSLSLSPGK light: QIVLSQSPAILSASPGEKVTMTCRASSSVSYIHWFQQKPGSSPKPWIYATSNLASGVPVRFSGSGSGTSYSLTISRVEAEDAATYYCQQWTSNPPTFGGGTKLEIKRTVAAPSVFIFPPSDEQLKSGTASVVCLLNNFYPREAKVQWKVDNALQSGNSQESVTEQDSKDSTYSLSSTLTLSKADYEKHKVYACEVTHQGLSSPVTKSFNRGEC | 0.7 | 5.9 | 
anti-CD20 human IgG1 L235G/G236R (antibody, also called 2-83) heavy: not shown light: QIVLSQSPAILSASPGEKVTMTCRASSSVSYIHWFQQKPGSSPKPWIYATSNLASGVPVRFSGSGSGTSYSLTISRVEAEDAATYYCQQWTSNPPTFGGGTKLEIKRTVAAPSVFIFPPSDEQLKSGTASVVCLLNNFYPREAKVQWKVDNALQSGNSQESVTEQDSKDSTYSLSSTLTLSKADYEKHKVYACEVTHQGLSSPVTKSFNRGEC |  |  | 125
anti-CD20 human IgG1 L234R/L235Q/G236R (antibody, also called 2-42) heavy: QVQLQQPGAELVKPGASVKMSCKASGYTFTSYNMHWVKQTPGRGLEWIGAIYPGNGDTSYNQKFKGKATLTADKSSSTAYMQLSSLTSEDSAVYYCARSTYYGGDWYFNVWGAGTTVTVSSASTKGPSVFPLAPSSKSTSGGTAALGCLVKDYFPEPVTVSWNSGALTSGVHTFPAVLQSSGLYSLSSVVTVPSSSLGTQTYICNVNHKPSNTKVDKKVEPKSCDKTHTCPPCPAPERQRGPSVFLFPPKPKDTLMISRTPEVTCVVVDVSHEDPEVKFNWYVDGVEVHNAKTKPREEQYNSTYRVVSVLTVLHQDWLNGKEYKCKVSNKALPAPIEKTISKAKGQPREPQVYTLPPSRDELTKNQVSLTCLVKGFYPSDIAVEWESNGQPENNYKTTPPVLDSDGSFFLYSKLTVDKSRWQQGNVFSCSVMHEALHNHYTQKSLSLSPGK light: QIVLSQSPAILSASPGEKVTMTCRASSSVSYIHWFQQKPGSSPKPWIYATSNLASGVPVRFSGSGSGTSYSLTISRVEAEDAATYYCQQWTSNPPTFGGGTKLEIKRTVAAPSVFIFPPSDEQLKSGTASVVCLLNNFYPREAKVQWKVDNALQSGNSQESVTEQDSKDSTYSLSSTLTLSKADYEKHKVYACEVTHQGLSSPVTKSFNRGEC | -1 | 7.3 | 
anti-CD20 human IgG1 L234K/L235Q/G236R (antibody, also called 2-22; 1-87) heavy: QVQLQQPGAELVKPGASVKMSCKASGYTFTSYNMHWVKQTPGRGLEWIGAIYPGNGDTSYNQKFKGKATLTADKSSSTAYMQLSSLTSEDSAVYYCARSTYYGGDWYFNVWGAGTTVTVSSASTKGPSVFPLAPSSKSTSGGTAALGCLVKDYFPEPVTVSWNSGALTSGVHTFPAVLQSSGLYSLSSVVTVPSSSLGTQTYICNVNHKPSNTKVDKKVEPKSCDKTHTCPPCPAPEKQRGPSVFLFPPKPKDTLMISRTPEVTCVVVDVSHEDPEVKFNWYVDGVEVHNAKTKPREEQYNSTYRVVSVLTVLHQDWLNGKEYKCKVSNKALPAPIEKTISKAKGQPREPQVYTLPPSRDELTKNQVSLTCLVKGFYPSDIAVEWESNGQPENNYKTTPPVLDSDGSFFLYSKLTVDKSRWQQGNVFSCSVMHEALHNHYTQKSLSLSPGK light: QIVLSQSPAILSASPGEKVTMTCRASSSVSYIHWFQQKPGSSPKPWIYATSNLASGVPVRFSGSGSGTSYSLTISRVEAEDAATYYCQQWTSNPPTFGGGTKLEIKRTVAAPSVFIFPPSDEQLKSGTASVVCLLNNFYPREAKVQWKVDNALQSGNSQESVTEQDSKDSTYSLSSTLTLSKADYEKHKVYACEVTHQGLSSPVTKSFNRGEC |  | 5.8 | 6.1
